From publication PMC6533308, “In vitro NTPase activity of highly purified Pdr5, a major yeast ABC multidrug transporter” (Scientific Reports, 2019)

How the values were obtained:
Pdr5 [1] = target: T1, Pdr5 (Saccharomyces cerevisiae, UniProt P33302); experiment: inhibition of ATPase, colorimetric phosphate release; format: biochemical
T1 construct: full-length, N-terminal 14x His tag with protease cleavage site; homologous expression in S. cerevisiae (pdr1-3), solubilized and purified in trans-PCC-α-M by IMAC and SEC
T1 sequence (P33302 whole entry): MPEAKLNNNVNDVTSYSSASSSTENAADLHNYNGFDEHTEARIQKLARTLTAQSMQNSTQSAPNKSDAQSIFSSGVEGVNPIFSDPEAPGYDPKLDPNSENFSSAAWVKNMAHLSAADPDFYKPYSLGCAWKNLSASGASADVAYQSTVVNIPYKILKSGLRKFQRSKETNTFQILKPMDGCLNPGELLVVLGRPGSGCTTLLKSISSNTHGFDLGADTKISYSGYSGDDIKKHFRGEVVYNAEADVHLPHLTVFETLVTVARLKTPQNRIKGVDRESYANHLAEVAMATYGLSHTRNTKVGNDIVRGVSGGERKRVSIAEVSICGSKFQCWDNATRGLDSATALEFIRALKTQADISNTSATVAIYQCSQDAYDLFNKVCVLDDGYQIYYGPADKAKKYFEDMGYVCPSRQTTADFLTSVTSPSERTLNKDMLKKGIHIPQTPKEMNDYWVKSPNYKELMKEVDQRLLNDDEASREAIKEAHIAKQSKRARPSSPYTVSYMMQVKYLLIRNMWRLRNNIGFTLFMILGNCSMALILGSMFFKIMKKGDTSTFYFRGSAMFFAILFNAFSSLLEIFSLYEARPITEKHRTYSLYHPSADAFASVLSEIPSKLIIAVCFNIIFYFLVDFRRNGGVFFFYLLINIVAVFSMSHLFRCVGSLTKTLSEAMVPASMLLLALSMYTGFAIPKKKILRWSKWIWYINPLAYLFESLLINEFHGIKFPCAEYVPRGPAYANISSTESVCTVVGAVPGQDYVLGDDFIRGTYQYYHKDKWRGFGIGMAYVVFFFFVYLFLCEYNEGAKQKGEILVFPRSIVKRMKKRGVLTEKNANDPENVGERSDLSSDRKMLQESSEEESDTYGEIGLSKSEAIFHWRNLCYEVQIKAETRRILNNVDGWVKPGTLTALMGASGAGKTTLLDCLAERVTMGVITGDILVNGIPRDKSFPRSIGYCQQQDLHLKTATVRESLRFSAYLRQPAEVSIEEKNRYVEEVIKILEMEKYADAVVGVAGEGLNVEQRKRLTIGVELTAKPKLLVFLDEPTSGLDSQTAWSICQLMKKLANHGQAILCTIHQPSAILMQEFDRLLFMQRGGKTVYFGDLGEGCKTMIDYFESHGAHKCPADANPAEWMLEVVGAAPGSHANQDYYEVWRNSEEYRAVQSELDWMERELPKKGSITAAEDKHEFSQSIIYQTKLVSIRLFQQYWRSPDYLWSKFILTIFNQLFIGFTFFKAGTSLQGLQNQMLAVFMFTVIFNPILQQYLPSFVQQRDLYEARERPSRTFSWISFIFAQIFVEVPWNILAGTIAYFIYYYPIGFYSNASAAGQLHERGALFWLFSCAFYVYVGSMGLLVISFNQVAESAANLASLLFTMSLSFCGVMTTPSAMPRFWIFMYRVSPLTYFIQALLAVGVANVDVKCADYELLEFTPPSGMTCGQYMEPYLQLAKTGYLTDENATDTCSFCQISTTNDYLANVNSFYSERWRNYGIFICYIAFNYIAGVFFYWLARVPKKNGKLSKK
Source text: inhibition of ATPase, colorimetric phosphate release on Pdr5

[2] = test system: Nc1ccn([C@@H]2O[C@H](COP(=O)(O)OP(=O)(O)OP(=O)(O)O)[C@@H](O)[C@H]2O)c(=O)n1; experiment: purified protein; conditions: 10 mM MgCl2, 300 mM Tris-glycine pH 9.5, 0.004% trans-PCC-α-M, 20 min, 0-5 mM NTP
[3] = test system: Nc1nc2c(ncn2[C@@H]2O[C@H](COP(=O)(O)OP(=O)(O)OP(=O)(O)O)[C@@H](O)[C@H]2O)c(=O)[nH]1; experiment: purified protein; conditions: 10 mM MgCl2, 300 mM Tris-glycine pH 9.5, 0.004% trans-PCC-α-M, 20 min, 0-5 mM NTP
[4] = test system: Nc1ncnc2c1ncn2[C@@H]1O[C@H](COP(=O)(O)OP(=O)(O)OP(=O)(O)O)[C@@H](O)[C@H]1O; experiment: purified protein; conditions: 10 mM MgCl2, 300 mM Tris-glycine pH 9.5, 0.004% trans-PCC-α-M, 20 min, 0-5 mM NTP
[5] = test system: O=c1ccn([C@@H]2O[C@H](COP(=O)(O)OP(=O)(O)OP(=O)(O)O)[C@@H](O)[C@H]2O)c(=O)[nH]1; experiment: purified protein; conditions: 10 mM MgCl2, 300 mM Tris-glycine pH 9.5, 0.004% trans-PCC-α-M, 20 min, 0-5 mM NTP
Pdr5 [6] = target: T1, Pdr5; experiment: enzyme-coupled (PK/LDH, NADH) ATPase assay; format: biochemical; conditions: 4 mM ATP, 5 mM MgCl2, 300 mM Tris-glycine pH 8, 30 °C, 0.004% trans-PCC-α-M

For `CCN=c1cc2oc3cc(NCC)c(C)cc3c(-c3ccccc3C(=O)OCC)c-2cc1C` [rhodamine 6 G], which Ki (Pdr5 [1]) is on record?
The Ki was 3.2 ± 0.2 µM.

Which results are given for Pdr5 (Saccharomyces cerevisiae S288C)?
Km [2]: 1620 ± 250 µM; Vmax [2]: 0.385 µmol/min/mg; Vmax/Km [2]: 200 µL/min/mg; Km [3]: 1610 ± 300 µM; Vmax [3]: 0.106 µmol/min/mg; Vmax/Km [3]: 100 µL/min/mg; Km [4]: 440 ± 50 µM; Vmax [4]: 0.208 µmol/min/mg; Vmax/Km [4]: 500 µL/min/mg; Km [5]: 590 ± 110 µM; Vmax [5]: 0.0646 µmol/min/mg; Vmax/Km [5]: 100 µL/min/mg

Which “maximum inhibition at 2 mM AMP” value (Pdr5 [6]) does the source give for `Nc1ncnc2c1ncn2[C@@H]1O[C@H](COP(=O)(O)O)[C@@H](O)[C@H]1O` [AMP] here?
Its value is ~ 20%.

Which Ki (Pdr5 [1]) does the source give for `CC(=O)N1CCN(c2ccc(OCC3COC(Cn4ccnc4)(c4ccc(Cl)cc4Cl)O3)cc2)CC1` (stereo not drawn) [ketoconazole] here?
Its Ki is 22.7 ± 2.1 µM.
